Nanoluciferase activity (RLU) data for one substance are collected here from publication PMC9938795.

The assay addresses PRKAR2A, regulatory subunit of protein kinase A (NanoBiT positive control) (UniProt P13861). Kind of assay: split reporter.

PRKAR2A, regulatory subunit of protein kinase A (NanoBiT positive control), sequence (P13861 whole entry): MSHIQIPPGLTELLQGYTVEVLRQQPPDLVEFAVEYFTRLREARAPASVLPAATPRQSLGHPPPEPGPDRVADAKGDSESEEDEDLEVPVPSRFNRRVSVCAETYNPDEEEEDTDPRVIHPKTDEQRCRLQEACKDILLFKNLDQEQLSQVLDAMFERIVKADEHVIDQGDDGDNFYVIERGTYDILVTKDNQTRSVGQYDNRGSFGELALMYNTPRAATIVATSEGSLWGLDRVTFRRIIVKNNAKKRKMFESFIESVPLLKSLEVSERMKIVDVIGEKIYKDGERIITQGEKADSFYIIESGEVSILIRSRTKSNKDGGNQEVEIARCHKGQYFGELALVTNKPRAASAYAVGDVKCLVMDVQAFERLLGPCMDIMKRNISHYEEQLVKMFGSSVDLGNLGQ

Substance “PRKACA, catalytic subunit of protein kinase A (NanoBiT positive control) (from UniProt P17612 1-351) (natural protein)” returned a nanoluciferase activity (RLU) of 800000 RLU.
